Measurements as given in article PMC5825162.

B1: Recombinant, human, soluble EphB3-Fc (Fc fusion)
chain: GCRALEETLMDTKWVTSELAWTSHPESGWEEVSGYDEAMNPIRTYQVCNVRESSQNNWLRTGFIWRRDVQRVYVELKFTVRDCNSIPNIPGSCKETFNLFYYEADSDVASASSPFWMENPYVKVDTIAPDESFSRLDAGRVNTKVRSFGPLSKAGFYLAFQDQGACMSLISVRAFYKKCASTTAGFALFPETLTGAEPTSLVIAPGTCIPNAVEVSVPLKLYCNGDGEWMVPVGACTCATGHEPAAKESQCRPCPPGSYKAKQGEGPCLPCPPNSRTTSPAASICTCHNNFYRADSDSADSACTTVPSPPRGVISNVNETSLILEWSEPRDLGGRDDLLYNVICKKCHGAGGASACSRCDDNVEFVPRQLGLTERRVHISHLLAHTRYTFEVQAVNGVSGKSPLPPRYAAVNITTNQAAPSEVPTLRLHSSSGSSLTLSWAPPERPNGVILDYEMKYFEKSEGIASTVTSQMNSVQLDGLRPDARYVVQVRARTVAGYGQYSRPAEFETTSERGSGAQQLQEQLPL

Assays:
[1] = biological target: KSHV gH/gL glycoprotein complex (gH-V5/gL-Flag), wild type (Kaposi's sarcoma-associated herpesvirus (KSHV)) (UniProt F5HAK9)
Sequence of UniProt F5HAK9 (F5HAK9 whole entry, looked up, one chain of several): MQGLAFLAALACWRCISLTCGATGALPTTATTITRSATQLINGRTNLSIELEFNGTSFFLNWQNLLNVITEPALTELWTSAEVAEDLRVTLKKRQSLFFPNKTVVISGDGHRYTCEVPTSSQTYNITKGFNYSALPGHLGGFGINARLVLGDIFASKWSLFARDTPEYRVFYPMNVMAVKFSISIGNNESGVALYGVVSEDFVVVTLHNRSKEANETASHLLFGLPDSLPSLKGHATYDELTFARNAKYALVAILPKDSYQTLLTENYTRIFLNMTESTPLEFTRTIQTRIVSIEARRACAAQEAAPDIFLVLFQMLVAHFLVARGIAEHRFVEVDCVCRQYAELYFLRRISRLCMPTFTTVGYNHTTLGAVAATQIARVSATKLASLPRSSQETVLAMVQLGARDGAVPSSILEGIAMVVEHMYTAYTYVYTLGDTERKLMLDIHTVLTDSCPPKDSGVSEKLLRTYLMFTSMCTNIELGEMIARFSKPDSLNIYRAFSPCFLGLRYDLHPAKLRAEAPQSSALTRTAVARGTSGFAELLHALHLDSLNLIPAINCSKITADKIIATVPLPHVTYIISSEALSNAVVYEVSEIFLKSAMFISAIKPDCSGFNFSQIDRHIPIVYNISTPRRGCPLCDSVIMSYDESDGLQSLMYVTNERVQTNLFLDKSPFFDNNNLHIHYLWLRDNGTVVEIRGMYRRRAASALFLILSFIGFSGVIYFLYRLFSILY

[2] = biological target: RRV gH/gL glycoprotein complex (gH-V5/gL-Flag), wild type (rhesus monkey rhadinovirus (RRV))

Molecule | inhibition of KSHV wt infection of SLK cells (GFP, flow cytometry) after pre-incubation of the virus with soluble EphA2-Fc, dose series; gH/gL on virions [1] | inhibition of RRV 26–95 wt infection of SLK cells (YFP, flow cytometry) after pre-incubation of the virus with soluble EphB3-Fc, dose series; gH/gL on virions [2]
soluble EphA2-Fc fusion construct comprising amino acids 25–534 of human EphA2 (from UniProt P29317-1 25-534) | 90% | 
B1 |  | 80%
